The values that follow come from paper PMC7736794.

The target in the experiment is T1, PrimPol (endogenous, OVCAR8), Q96LW4.
T1 chain: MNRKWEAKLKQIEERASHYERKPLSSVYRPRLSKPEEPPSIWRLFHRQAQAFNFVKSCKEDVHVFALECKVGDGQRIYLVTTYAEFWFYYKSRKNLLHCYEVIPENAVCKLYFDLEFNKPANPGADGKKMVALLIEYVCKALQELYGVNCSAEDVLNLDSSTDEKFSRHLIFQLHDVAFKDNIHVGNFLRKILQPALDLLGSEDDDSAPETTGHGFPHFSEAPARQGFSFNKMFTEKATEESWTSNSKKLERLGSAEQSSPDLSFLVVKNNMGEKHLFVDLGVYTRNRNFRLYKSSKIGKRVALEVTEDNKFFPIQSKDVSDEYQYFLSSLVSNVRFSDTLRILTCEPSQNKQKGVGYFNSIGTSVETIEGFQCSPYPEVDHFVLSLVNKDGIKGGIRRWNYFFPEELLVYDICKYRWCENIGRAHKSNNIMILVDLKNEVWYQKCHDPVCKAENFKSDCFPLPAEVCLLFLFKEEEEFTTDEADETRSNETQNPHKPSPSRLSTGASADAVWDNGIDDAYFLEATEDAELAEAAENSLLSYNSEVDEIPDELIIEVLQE
As to the kind of experiment: in situ proximity ligation assay (PLA). To be noted: chain shown with the change, USP36 stably knock-down OVCAR8 cells, read off a plot.

B1: USP36-wild-type (WT), transfected in OVCAR8, Q9P275 K329R; K338R (protein)
chain: MPIVDKLKEALKPGRKDSADDGELGKLLASSAKKVLLQKIEFEPASKSFSYQLEALKSKYVLLNPKTEGASRHKSGDDPPARRQGSEHTYESCGDGVPAPQKVLFPTERLSLRWERVFRVGAGLHNLGNTCFLNATIQCLTYTPPLANYLLSKEHARSCHQGSFCMLCVMQNHIVQAFANSGNAIKPVSFIRDLKKIARHFRFGNQEDAHEFLRYTIDAMQKACLNGCAKLDRQTQATTLVHQIFGGYLRSRVKCSVCKSVSDTYDPYLDVALEIRQAANIVRALELFVKADVLSGENAYMCAKCKKKVPASKRFTIHRTSNVLTLSLRRFANFSGGRITKDVGYPEFLNIRPYMSQNNGDPVMYGLYAVLVHSGYSCHAGHYYCYVKASNGQWYQMNDSLVHSSNVKVVLNQQAYVLFYLRIPGSKKSPEGLISRTGSSSLPGRPSVIPDHSKKNIGNGIISSPLTGKRQDSGTMKKPHTTEEIGVPISRNGSTLGLKSQNGCIPPKLPSGSPSPKLSQTPTHMPTILDDPGKKVKKPAPPQHFSPRTAQGLPGTSNSNSSRSGSQRQGSWDSRDVVLSTSPKLLATATANGHGLKGNDESAGLDRRGSSSSSPEHSASSDSTKAPQTPRSGAAHLCDSQETNCSTAGHSKTPPSGADSKTVKLKSPVLSNTTTEPASTMSPPPAKKLALSAKKASTLWRATGNDLRPPPPSPSSDLTHPMKTSHPVVASTWPVHRARAVSPAPQSSSRLQPPFSPHPTLLSSTPKPPGTSEPRSCSSISTALPQVNEDLVSLPHQLPEASEPPQSPSEKRKKTFVGEPQRLGSETRLPQHIREATAAPHGKRKRKKKKRPEDTAASALQEGQTQRQPGSPMYRREGQAQLPAVRRQEDGTQPQVNGQQVGCVTDGHHASSRKRRRKGAEGLGEEGGLHQDPLRHSCSPMGDGDPEAMEESPRKKKKKKRKQETQRAVEEDGHLKCPRSAKPQDAVVPESSSCAPSANGWCPGDRMGLSQAPPVSWNGERESDVVQELLKYSSDKAYGRKVLTWDGKMSAVSQDAIEDSRQARTETVVDDWDEEFDRGKEKKIKKFKREKRRNFNAFQKLQTRRNFWSVTHPAKAASLSYRR
Take B1: the response (PLA puncta / cell) reads like this: (HU (10 mM) for 4 h, parent: est. 17) 15; (untreated (Ctrl), parent: est. 11) 15.
